The Immune Epitope Database (IEDB)

How the values were obtained:
HLA-B*46:01 [1] = experiment: IEDB peptide-MHC binding, purified MHC/direct/fluorescence; filed as Kd, often an IC50 or EC50 that approximates it; ≥ and ≤ were set here for values at or beyond the usual limits of such assays; settings: source organism: West Nile virus
HLA-A*02:01 [2] = experiment: as above; settings: source organism: SARS-CoV1
HLA-A*26:01 [3] = experiment: as above
HLA-A*69:01 = experiment: as above
HLA-B*15:01 = experiment: as above
HLA-B*58:01 = experiment: as above
HLA-B*46:01 [4] = experiment: IEDB peptide-MHC binding, purified MHC/competitive/fluorescence; filed as Kd, often an IC50 or EC50 that approximates it; ≥ and ≤ were set here for values at or beyond the usual limits of such assays
HLA-A*31:01 [5] = experiment: IEDB peptide-MHC binding, purified MHC/competitive/radioactivity; filed as Kd, often an IC50 or EC50 that approximates it; ≥ and ≤ were set here for values at or beyond the usual limits of such assays; settings: source organism: SARS coronavirus Tor2
HLA-A*33:01 = experiment: as above; settings: source organism: SARS coronavirus Tor2
HLA-A*68:01 = experiment: as above; settings: source organism: SARS coronavirus Tor2
HLA-A*02:01 [6] = experiment: as above
HLA-A*02:02 = experiment: as above; settings: source organism: Trypanosoma cruzi
HLA-A*02:03 = experiment: as above; settings: source organism: Trypanosoma cruzi
HLA-A*02:06 = experiment: as above; settings: source organism: Trypanosoma cruzi
HLA-A*68:02 = experiment: as above; settings: source organism: Trypanosoma cruzi
HLA-A*02:01 [7] = experiment: IEDB peptide-MHC binding, purified MHC/competitive/fluorescence; filed as Kd, often an IC50 or EC50 that approximates it; ≥ and ≤ were set here for values at or beyond the usual limits of such assays; settings: source organism: Escherichia coli
HLA-A*26:01 [8] = experiment: as above; settings: source organism: Escherichia coli
HLA-B*07:02 [9] = experiment: IEDB peptide-MHC binding, purified MHC/competitive/radioactivity; filed as Kd, often an IC50 or EC50 that approximates it; ≥ and ≤ were set here for values at or beyond the usual limits of such assays
HLA-B*35:01 = experiment: as above
HLA-B*51:01 [10] = experiment: as above
HLA-B*53:01 = experiment: as above
HLA-B*54:01 = experiment: as above
HLA-A*24:03 = experiment: IEDB peptide-MHC binding, purified MHC/direct/fluorescence; filed as Kd, often an IC50 or EC50 that approximates it; ≥ and ≤ were set here for values at or beyond the usual limits of such assays
HLA-B*27:05 = experiment: as above
HLA-B*51:01 [11] = experiment: IEDB peptide-MHC binding, purified MHC/competitive/fluorescence; filed as Kd, often an IC50 or EC50 that approximates it; ≥ and ≤ were set here for values at or beyond the usual limits of such assays; settings: source organism: Campylobacter jejuni subsp. jejuni NCTC 11168 = ATCC 700819
HLA-A*01:01 = experiment: IEDB peptide-MHC binding, purified MHC/direct/fluorescence; filed as Kd, often an IC50 or EC50 that approximates it; ≥ and ≤ were set here for values at or beyond the usual limits of such assays; settings: source organism: Giardia lamblia ATCC 50803
HLA-A*03:01 = experiment: as above; settings: source organism: Giardia lamblia ATCC 50803
HLA-A*11:01 = experiment: as above; settings: source organism: Giardia lamblia ATCC 50803
HLA-A*31:01 [12] = experiment: as above; settings: source organism: Giardia lamblia ATCC 50803
HLA-B*07:02 [13] = experiment: as above; settings: source organism: Giardia lamblia ATCC 50803
HLA-B*08:01 = experiment: as above; settings: source organism: Giardia lamblia ATCC 50803
HLA-B*40:01 = experiment: as above; settings: source organism: Giardia lamblia ATCC 50803
HLA-B*44:02 = experiment: as above; settings: source organism: Giardia lamblia ATCC 50803
[14] = source organism: Vaccinia virus WR
[15] = source organism: SARS coronavirus Tor2
[16] = source organism: Salmonella enterica subsp. enterica serovar Typhimurium
[17] = source organism: Giardia lamblia ATCC 50803

With VIQLNRKSY the Kd (HLA-B*46:01 [1]) was ≥ 20000 nM.
YIFFASFYY gave a Kd (HLA-A*02:01 [2]) of 6820 nM, a Kd (HLA-A*26:01 [3]; source organism: SARS-CoV1) of 527 nM and a Kd (HLA-A*69:01; source organism: SARS-CoV1) of 738 nM. For the same sequence, the Kd (HLA-B*15:01; source organism: SARS-CoV1) was 3710 nM, the Kd (HLA-B*58:01; source organism: SARS-CoV1) was 3120 nM and the Kd (HLA-B*46:01 [4]; source organism: SARS-CoV1) was ≥ 20000 nM. The Kd (HLA-A*31:01 [5]) was 784 nM, the Kd (HLA-A*33:01) was 641 nM and the Kd (HLA-A*68:01) was 1.7 nM.
For LLGLWGIAAS, the Kd (HLA-A*02:01 [6]; source organism: Trypanosoma cruzi) was 2500 nM, the Kd (HLA-A*02:02) was 1580 nM and the Kd (HLA-A*02:03) was 680 nM. For the same sequence, the Kd (HLA-A*02:06) was 9130 nM and the Kd (HLA-A*68:02) was ≥ 111000 nM.
ELISSAFKV gave a Kd (HLA-A*02:01 [7]) of 17.6 nM and a Kd (HLA-A*26:01 [8]) of 4060 nM.
In the case of DPSERVFKKI, the Kd (HLA-B*07:02 [9]; [14]) is reported as ≥ 69600 nM, the Kd (HLA-B*35:01; [14]) is reported as ≥ 69900 nM and the Kd (HLA-B*51:01 [10]; [14]) is reported as ≥ 46700 nM. For the same sequence, the Kd (HLA-B*53:01; [14]) was 18200 nM and the Kd (HLA-B*54:01; [14]) was ≥ 43300 nM.
In the case of PYATGPLVF, the Kd (HLA-A*24:03; source organism: Mycobacterium tuberculosis) is reported as 382 nM.
For FPQAAPHGVV, the Kd (HLA-B*07:02 [9]; [15]) was 82.2 nM, the Kd (HLA-B*35:01; [15]) was 1680 nM and the Kd (HLA-B*51:01 [10]; [15]) was 159 nM. For the same sequence, the Kd (HLA-B*53:01; [15]) was 4140 nM and the Kd (HLA-B*54:01; [15]) was 15.8 nM.
In the case of SPYYIRKESY, the Kd (HLA-B*07:02 [9]; [14]) is reported as 65.4 nM, the Kd (HLA-B*35:01; [14]) is reported as 101 nM and the Kd (HLA-B*51:01 [10]; [14]) is reported as ≥ 69600 nM. For the same sequence, the Kd (HLA-B*53:01; [14]) was 646 nM and the Kd (HLA-B*54:01; [14]) was 669 nM.
Work on SLNFMGYVI yielded a Kd (HLA-A*02:01 [6]; source organism: Hepatitis B virus ayw/France/Tiollais/1979) of 1320 nM.
Work on YQKKNASVY yielded a Kd (HLA-B*15:01; [16]) of 330 nM, a Kd (HLA-B*27:05; [16]) of 5060 nM and a Kd (HLA-B*46:01 [4]; source organism: Salmonella enterica subsp. enterica serovar Typhi) of 293 nM.
DPMVIENGI was tested, and the Kd (HLA-B*07:02 [9]; [14]) was 388 nM, the Kd (HLA-B*35:01; [14]) was 2360 nM and the Kd (HLA-B*51:01 [10]; [14]) was 34.6 nM. For the same sequence, the Kd (HLA-B*53:01; [14]) was 3860 nM and the Kd (HLA-B*54:01; [14]) was 485 nM.
With LSILPFFIV the Kd (HLA-B*51:01 [11]) was ≥ 20000 nM.
Work on FPGDKTSYWV yielded a Kd (HLA-B*07:02 [9]; [14]) of 261 nM, a Kd (HLA-B*35:01; [14]) of 88.8 nM and a Kd (HLA-B*51:01 [10]; [14]) of 50.1 nM. For the same sequence, the Kd (HLA-B*53:01; [14]) was 14.4 nM and the Kd (HLA-B*54:01; [14]) was 5.36 nM.
Sequence MPTYKHLIMF has a Kd (HLA-B*07:02 [9]; [14]) of 21.8 nM, a Kd (HLA-B*35:01; [14]) of 20.6 nM and a Kd (HLA-B*51:01 [10]; [14]) of 843 nM. The Kd (HLA-B*53:01; [14]) was 18 nM and the Kd (HLA-B*54:01; [14]) was 23.6 nM.
For DIIRAHPWF, the Kd (HLA-A*01:01) was ≥ 20000 nM, the Kd (HLA-A*03:01) was 8160 nM and the Kd (HLA-A*11:01) was ≥ 20000 nM. For the same sequence, the Kd (HLA-A*26:01 [3]; [17]) was 286 nM, the Kd (HLA-A*31:01 [12]) was ≥ 20000 nM and the Kd (HLA-A*69:01; [17]) was ≥ 20000 nM. For the same sequence, the Kd (HLA-B*07:02 [13]) was ≥ 20000 nM, the Kd (HLA-B*08:01) was 9920 nM and the Kd (HLA-B*15:01; [17]) was 16600 nM. The Kd (HLA-B*27:05; [17]) was ≥ 20000 nM, the Kd (HLA-B*40:01) was ≥ 20000 nM and the Kd (HLA-B*44:02) was ≥ 20000 nM. For the same sequence, the Kd (HLA-B*58:01; [17]) was ≥ 20000 nM.
In the case of IYKNKISDF, the Kd (HLA-A*24:03; source organism: Cryptosporidium parvum) is reported as 130 nM.
